First the molecules themselves.
B1: VIL9 peptide (peptide)
peptide: VMAPRTLIL
B2: LEL15 peptide (peptide)
peptide: LGHPDTLNQGEFKEL
B3: DQ13 peptide (peptide)
peptide: DVHDGKVVSTHEQ
B4: LNL15 peptide (peptide)
peptide: LVDSGAQVSVVHPNL
B5: SY10 peptide (peptide)
peptide: SKGKIYPVGY

Experimental findings from PMC6471057 are described below.

One test deals with HLA-E*01:01 on T2E cells (human | human (endogenous in T2)). Description: flow cytometry on cells; peptide stabilization on T2E cells (peptide 18 h at 37 °C), washed, without Brefeldin A; HLA-E surface level (mAb 3D12) at 0, 2, 4 and 6 h at 37 °C. (In general: In flow cytometry, cells or beads pass a laser one at a time.)
The molecule B1 came in with a DT50 (without Brefeldin A) of more than 6 h.
Still for that read-out and setting: next, B2: more than 6 h.
On the same count and under the same terms, next, B3: more than 6 h.
On the same count and under the same terms, next, B4: more than 6 h; B5: more than 6 h.

A further test shares this target. Briefly: flow cytometry on cells; peptide stabilization on T2E cells (peptide 18 h at 37 °C), then 1 h with Brefeldin A 10 µg/mL, washed; HLA-E surface level (mAb 3D12) at 0, 2, 4 and 6 h at 37 °C; decrease taken as dissociation of the peptide from HLA-E.
For B1, the DT50 (incubation time for 50% of the p:HLA-E complexes to decay, with Brefeldin A) was more than 6 h.
For the molecule B2, the DT50 (incubation time for 50% of the p:HLA-E complexes to decay, with Brefeldin A) was more than 6 h.
The same measure, in the same setting: the result for B3 reads more than 6 h; that for B4, more than 4 h; that for B5, more than 6 h.

The target is the same in the next test. Described as above. The source holds these as a separate data set.
For B1, the reduction in HLA-E surface expression after 6 h is 23%.
In the case of B3, the reduction in HLA-E surface expression after 6 h was 1.5%.
In the case of B4, the DT50 (incubation time for 50% of the p:HLA-E complexes to decay, with Brefeldin A) was less than 6 h.
